# Laboratory results from the DeepSol protein solubility set.
# Assay: soluble on expression in E. coli; label from the status in PepcDB or PDB records
row,Sequence,soluble on expression in E. coli
1,MSIEEEDTNKITCTQDFLHQYFVTERVSIQFGLNNKTVKRINKDEFDKAVNCIMSWTNYPKPGLKRTASTYLLSNSFKKSATVSLPFILGDPVCMPKRVESNNNDTCLLYSDTLYDDPLIQRNDQAGDEIEDEFSFTLLRSEVNEIRPISSSSTAQILQSDYSALMYERQASNGSIFQFSSP,not soluble
2,MLLHLPNGDVLCVWFGGTQEGIADISIYMSRLVKDSGSWSKAAKLSEDATRSEQNPVLFLAPDNVLWLLYTAQKSGNQDTAIVRYRQSTDLGATWGEIGTLLDQPGTFIRQPITVLENGDWLLPVFYCRVQPGEKWVGNDDDSAVKISSDQGKTWREYPVPNSTGCVHMNITPLQDGTLLALYRSRWADFIYQSRSTDGGKTWSEPVATDLPNNNSSIQVTTLKNGHLALVFNHMSAADATDRRLSLYDELEHHHHHH,soluble
3,MGSDKIHHHHHHMIMKFFDREREINEILGILDETPDNIYFIYGPINSGKTTLMMEIINRLKDDKKYRIFYYNLRGVRISSYSDFFDIMFEIREDNKFKQMVKDADVLVEGIKFIEKTAKLFNESIILPSDLAKVILSKQKGFDVFRYLERVFREMNKKGLKPVIIIDELQRLKGLKSNGELIDDLFNFFVRLTKELHITHCFCLSSDSLFIEYVYDRAELRGRADYILVDDFDKETALKFMDFLSEDILGRKLSEDEKELIYSYVGGKPKDVYDVIIKLKLGKELKDILEFMLKEEIQKLKYFLEDVKEDDEELYNKIVDALKIFKENYEIEDIKIPKNIREFLVKKNILFLNPIEGTLKPQSFLVWNAIKKLLNGH,not soluble
4,MGSDKIHHHHHHQTIDETAIIARAQAIATRINEFLATRERNLLAKILALGGVQQAEIFEIQVKARLHPADVERVLAVLNHPAITVTKTSERTQYDTYFIFANGERIRIREDHRTDPGARPQPKYTLTLMAEARRFDHPKAMMLSRARYTAPADHTVRFYREYFQPDRIEELEKQRRRWRILYRDHDFAINLDTLIGQADRGPFLEIKSRTWSRRDAERRAELISELLELIGISDDALVLQEYVELVA,not soluble
5,MEKNGYIDPYTTVMNYLSITPGKWEIKYNENIRGISGKEHRFDAVYRSQEGEIVTVMVVLRTEDLEKRLDDFKNGSKDVRAKRKFLIVCGEINSDMVSELKSENISILMLPGMFCSQVSSYNADAGSNDAPRSLPDGGIEESQRKRSRANIIMDLIRAINENSNQIPVTRLFYACNINHRMGRSIIEDLEHAGIVILRKTGPNRNVVELTRKGISLINDYEFIREILEK,not soluble
6,MAKIPVLEIFGPTIQGEGRVIGRKTMFVRTAGCDYRCSWCDSAFTWDGSAKEDIKLMTAEEIYDALLEIGGHRFNHVTISGGNPALIKGIQELVDLFEDKHIYTALETQGSRFQSWMTQIDDLTISPKPPSSGMKTNLEILDSVINQCTFHSLNLKVVIFDDADYDFAKLIHHRYPNIPFYLQVGNPYLDDNVDQHTDKLLERYEQLVDRVMQSSDMNHVYVLPQLHTLLWSNKKGV,not soluble
7,MGSDKIHHHHHHMPALAHRRSDIASGTRTTALTDHRFRGRITSFTRQVPKLMNKQQGNTPVHIWRVDFEGMEMRTTSSDGIHVWIARDDVMEALQIPDPGYALSFVTPEDQAALSSGTDVPDEEDEPDGLPMINEIAVYEIMARFPTPPTGRFKPWLLRLRHLFFELMTRDDEATFLLQ,not soluble
8,MGSDKIHHHHHHDEINKDHNHTTAVPAKMILTDVMTSTAFSVVSGDFNLYGGMYVEHETGSHNQFYYAETRSSCTSASTFNNSWGGTYSTLKDALISVKVAEEEQNFITKGIAELFVAYNLAILTDMYGDTPWKEACDYTVSMTPAIDKQEEIYKDIMAYVDAAIEDLQKPDLTSLSNQDLIYKGDASAWLKTAYGLKARYTMRLMGRSADVKGDMEKVLDYISKSYTSAAEQCSYAMYGVGVNINPFFGVFYSRLGEVASRSMFDKLNERNDPRIRRCYVEANSQTMIASKDDPLLNLAHNGDLVQSQLEYTVSMFCAAQTAPTHILSYHEVLFLKAEALCRLNRKDEAKAVLKEAVVAGMANMEVNIKSALASDYWGGFLNVTNEVTPEEAASYFDENVVPLFDANPLKETMIQKYISFWNADGESTECYNDVRRLKSLGEDIYGLQNPGKFPLRCPYGNDDTTTNPNIQAAYGDGQYVFTENVWWAGGTR,not soluble
9,MDLSIFKNARAKPVPRPAPAGAASGLHDPLAPTIFHEAWWLDASAPDGWSETLVRADNRIVGRLPYMILRKPFGQTSCEMPKFAHFLGPAVAPGPGARANRALKEAQIVRELHEQLPPTGNLYMRMHRGVTDTMVHAEAGLHMLVNFTFEIAPGCEQAIWAGMRDKTRNIIRRAQEKHCVSDTLDPRDFAACYRRNVDEAGHESYYETDEIVRVCTAALERGRGRILSATGPDGGLAAAIFTIWDATSCYYLLATRSRGEDHGATSLLLWEAIRHANRMGLIFDFDGLYTRGNRVFFTGFGGTVHPRYVVCGSTRTYRATAALSKALSRLRRP,not soluble
10,MGSDKIHHHHHHMQTLTIDVGGSKALFELQLAGHTEQYKIPTGEGFKIEELNNQIAALERDYDLQDYQLAIAVPGLVQHHRLVACKSLPGLNGLSIDTVKTQGTLKIISNDIDAGMQALCDAKYACELLVMCGSGIGMSIAFNGQVFSGATGVAGELGHCRIMSESGEFRLEQLASGDSVRSRNITSQEDLYRAGSYLGMGLAWAVNLLNPNRIWLAGGMMNSTPYYKGCIDNLKRMALSAPLAEMKIHRVDDMETLVCRGLSVILARDVSLT,not soluble
11,MDPDNRVRQRAVKTLGKRGNPDVLEDLMEALKDSRQPVQEAASEALRKIIAASDSVPVLVKALDATDRNVRKAAIEALWKAGTPEAIPPLLRELDDADWYLRSRAADALADIASPEAALGLIKVMDIHDSPVKKIIVNALGKIGTVEAVEGLVKALEDLEHHHHHH,soluble
12,MATFKDFRNNVKPNWCPGCGDFSVQAAIQKAAANIGLEPEEVAIITGIGCSGRLSGYINSYGVHSIHGRALPLAQGVKMANKDLTVIASGGDGDGYAIGMGHTIHALRRNMNMTYIVMDNQIYGLTKGQTSPSSAVGFVTKTTPKGNIEKNVAPLELALSSGATFVAQGFSSDIKGLTKLIEDAINHDGFSFVNVFSPCVTYNKINTYDWFKEHLTSVDDIENYDSTDKQLATKTVIEHESLVTGIVYQDKETPSYESQIKELDDTPLAKRDIKITEDTFNALTEQFI,not soluble
13,MSLKIAEMDSNSAVMAAQNEVIRGEIKDRDGNVLAKSTKSGDLTQKREYPYGEIYSHPIGYASGIYGNAGLEGAYSKELTTYENVSLKAFLKSFNLKKDFKERNESDKKVGNSIVTTLDTDLQKAAYAALGANRGAVVALDPKTGAVLASVSKPGFNPNNMKETYEIANNPNGNPKDAILVDRALNGQYPPGSTFKVVTLTSALENLPGVTERTFNDTGSINVGTKDLPNENGNAYGNISLRKALSVSSNVIFGGILGEELGNKKLRETAEKYGFNKDLYLGNLKAYSGSFPDRKTVDKGLIAYDAIGQGEVLSSPIEMAMVAATVANNGVRMEPYIVSKVVDKDGDTVKEFSSTKKDTVMSKEQAQIINEYMQGVAKDRINDNWGYFKGMNVAAKTGTAQVPDGNSHAWLIAFAPADDPKIAVATIVENGGSGSKVAAPVTARVMQAYFNEGHHHHHH,soluble
14,MSLKWAHPIPFPETGCVLVATEKLDGYRTFARTVVLLLRAGTRHPQEGPFGVVINRPLHKNIKHMKSTKTELATTFSECSLYFGGPLEASMFLLKTGDKTKIPGFEEVMPGLNFGTRNSLDEAAVLVKKGVLKPQEFRFFVGYAGWQLDQLREEIESDYWHVAACSSDLICGASSENLWEEILQLMGGQYSELSRKPKLDIEGHHHHHH,soluble
15,IVGGKVCPKGECPWQVLLLVNGAQLCGGTLINTIWVVSAAHCFDKIKNWRNLIAVLGEHDLSEHDGDEQSRRVAQVIIPSTYVPGTTNHDIALLRLHQPVVLTDHVVPLCLPERTFSERTLAFVRFSLVSGWGQLLDRGATALELMVLNVPRLMTQDCLQQSRKVGDSPNITEYMFCAGYSDGSKDSCKGDSGGPHATHYRGTWYLTGIVSWGQGCATVGHFGVYTRVSQYIEWLQKLMRSEPRPGVLLRAPFP,soluble
16,MSLAGVGGRPPPSVGSVVVADTTMFTDAKLREVLGARSLEEAARIMARILARASRMGLTVYITPSVRAEIERFMLGNGVHPTTIARLMAWVRVKPPTTHELRLPAAMFRRYVETVRARLDKGLRVAEDHVRRALRSRDEEGDIVRSLREKYREYTRKGMLDSVEDVDTLLLALELGAAIVTSDEGLRRAAEDLGLTVLTPVELLEYILALEEEVKSVEEEGHHHHHH,not soluble
17,MIDPREPIVTPVPVEELRPTQITVGMREVALKRQMIREQDAKKKTGAFLGKHMVPVVLGPKNRNYVTDHHHLARALLEEGVKDVLVTVISDLSALDKDTFLFVLDNRGWMHPFDESGRRRDYSAIPKTIGELIDDPYRSMAGELRRMGGFAKDTTPFSEFIWADFLRRRIDRNAVAKNFDKAMKEALSLAKGKDADYLPGWCGPTSDAAALEHHHHHH,soluble
18,MAHHHHHHMVQRTLLDFVRKKDPSPNVINVDAESDEQDEAASRKRRMQGVREPALAFTKPRTENKDDICCSNNFSALITDSGWRAFLQPLTSTTNFRNIEQFIEGEKTKGKVILPPSDLIFSAFNSTPLDRLKVVLLGQDPYHNIGQAHGLCFSVLPGVRPPPSLLNMYKELTTDISGFKSPPHGYLQCWAEQGVLMLNATLTVEAHQANSHAKCGWQAFTDGVIRLLSEKHQRPIVFLLWGGFARKKITLIDQKRHLVIENAHPSPLSAAKWWGSRPFSKCNAALTQLGHSPIDWSIPMSVERRH,not soluble
19,MGSDKIHHHHHHMKISLAPISYCWSKSDVEHFYQQVALSNIDTVYLGETVCSRRRELKFNNYLDLANMLKSHGKHVVLSTMALIEAQSELNELKRAIDNGDFSIEANDMAAVHYAHQAKVPFVCGPTINNYNRTSLNLLHQKGMYRFVMPCELSQQWLNTVINQGDKPAFEIEVLGHGYLPLAHSARCFTAKHYQLPKDKCQTICQRHSKGLLAQTQESQPLLRLNGIQTQSAAQVNLINQIPQMIDMGIDYWRISPNKLTDVAMGSELAHVLAQITEDPFNSKALITKQFNDNKQASIINHHCNGYWLGLPGMDYSLEPNTPAG,not soluble
20,MNDHLKRGNLLWEGSRMFLPEHKQSLLERKRLKQKLQKPILDPDKLEEMNQTLCAAMEFAQDITVSCFQDGEIVCCTGKICRYEEFEKAVWIKGDEDQLYKLKLDQVLDI,not soluble
21,MAPAEILNGKEISAQIRARLKNQVTQLKEQVPGFTPRLAILQVGNRDDSNLYINVKLKAAEEIGIKATHIKLPRTTTESEVMKYITSLNEDSTVHGFLVQLPLDSENSINTEEVINAIAPEKDVDGLTSINAGRLARGDLNDCFIPCTPKGCLELIKETGVPIAGRHAVVVGRSKIVGAPMHDLLLWNNATVTTCHSKTAHLDEEVNKGDILVVATGQPEMVKGEWIKPGAIVIDCGINYVPDDKKPNGRKVVGDVAYDEAKERASFITPVPGGVGPMTVAMLMQSTVESAKRFLEKFKPGKWMIQ,soluble
22,DQNAYHSIRTLLKSPTTLGEVKEHITHALTITPTKGSVINAFEHMWGYFKKQCTQYEKQHSRELKALYIENQIDYFELLSFLKNLADKYAVEYLQQSTILNITK,not soluble
